According to article PMC9482650, “Quantitative fragmentomics allow affinity mapping of interactomes” (Nature Communications, 2022):

T1: MPP5, Q8N3R9
T1 sequence (Q8N3R9 251-346, limits assumed, looked up): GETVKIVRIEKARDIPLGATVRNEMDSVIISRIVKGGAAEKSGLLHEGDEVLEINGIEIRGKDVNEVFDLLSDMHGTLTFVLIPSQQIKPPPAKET

T2: MPDZ_11, O75970
T2 sequence (O75970 1720-1817, limits assumed, looked up): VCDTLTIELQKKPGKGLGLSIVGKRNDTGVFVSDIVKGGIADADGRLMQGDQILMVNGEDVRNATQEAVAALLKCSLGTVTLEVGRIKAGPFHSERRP

T3: SHANK2, Q9UPX8
T3 sequence (Q9UPX8 621-730, limits assumed, looked up): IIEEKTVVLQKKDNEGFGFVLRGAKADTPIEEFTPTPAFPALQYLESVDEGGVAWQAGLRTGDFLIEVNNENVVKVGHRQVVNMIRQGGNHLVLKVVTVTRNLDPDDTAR

T4: SHANK3, Q9BYB0
T4 sequence (Q9BYB0 641-750, limits assumed, looked up): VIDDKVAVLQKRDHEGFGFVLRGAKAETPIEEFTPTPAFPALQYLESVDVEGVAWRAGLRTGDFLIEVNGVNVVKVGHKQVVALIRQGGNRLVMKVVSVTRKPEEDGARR

T5: PDZD2_6, O15018
T5 sequence (O15018 2745-2839, limits assumed, looked up): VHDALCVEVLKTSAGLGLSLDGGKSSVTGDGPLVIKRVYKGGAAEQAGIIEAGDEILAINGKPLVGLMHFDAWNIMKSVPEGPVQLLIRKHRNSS

T6: PTPN13_5, Q12923
T6 sequence (Q12923 1877-1975, limits assumed, looked up): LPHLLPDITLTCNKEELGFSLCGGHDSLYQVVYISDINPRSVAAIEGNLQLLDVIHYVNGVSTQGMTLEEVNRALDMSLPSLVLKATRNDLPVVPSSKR

T7: PDZD8, Q8NEN9
T7 sequence (Q8NEN9 361-459, limits assumed, looked up): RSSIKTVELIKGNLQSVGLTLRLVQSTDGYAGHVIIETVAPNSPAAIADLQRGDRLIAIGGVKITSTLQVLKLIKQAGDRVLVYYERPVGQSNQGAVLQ

T8: PDZD7_2, Q9H5P4
T8 sequence (Q9H5P4 205-303, limits assumed, looked up): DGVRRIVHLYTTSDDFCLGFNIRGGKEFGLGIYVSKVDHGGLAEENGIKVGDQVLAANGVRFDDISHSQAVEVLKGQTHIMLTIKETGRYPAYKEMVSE

T9: MPDZ_3, O75970
T9 sequence (O75970 372-473, limits assumed, looked up): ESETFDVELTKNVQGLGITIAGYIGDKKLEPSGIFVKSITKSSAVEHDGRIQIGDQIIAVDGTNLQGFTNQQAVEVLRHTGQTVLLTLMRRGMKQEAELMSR

T10: SYNPO2L, Q9H987
T10 sequence (Q9H987 1-98, limits assumed, looked up): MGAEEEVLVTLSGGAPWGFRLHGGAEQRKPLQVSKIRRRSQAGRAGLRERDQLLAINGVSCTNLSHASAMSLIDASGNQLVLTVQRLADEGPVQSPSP

T11: MPDZ_7, O75970
T11 sequence (O75970 1146-1253, limits assumed, looked up): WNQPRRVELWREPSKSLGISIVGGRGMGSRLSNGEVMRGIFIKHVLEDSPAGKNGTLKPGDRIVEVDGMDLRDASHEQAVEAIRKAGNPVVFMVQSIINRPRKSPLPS


Legend:
Assay in all cases: holdup assay
Design in all cases: key: below the threshold = too weak to quantify, mostly under pKd 3.1 to 4
Settings in all cases: plain residues with an end cap or a label only (N-terminal biotin on a linker: ttds)
[1] = molecular target: RIMS2, Q9UQ26
RIMS2, Q9UQ26, sequence (Q9UQ26 637-758): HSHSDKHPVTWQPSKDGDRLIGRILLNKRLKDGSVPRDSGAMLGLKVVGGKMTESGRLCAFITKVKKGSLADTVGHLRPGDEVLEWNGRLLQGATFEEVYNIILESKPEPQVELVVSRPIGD

[2] = molecular target: GRIP2_2, Q9C0E4
GRIP2_2, Q9C0E4, sequence (Q9C0E4 137-245): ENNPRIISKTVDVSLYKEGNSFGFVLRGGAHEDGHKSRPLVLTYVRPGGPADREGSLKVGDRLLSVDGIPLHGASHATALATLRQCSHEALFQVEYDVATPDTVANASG

[3] = molecular target: PREX1_1, Q8TCU6
PREX1_1, Q8TCU6, sequence (Q8TCU6 608-718): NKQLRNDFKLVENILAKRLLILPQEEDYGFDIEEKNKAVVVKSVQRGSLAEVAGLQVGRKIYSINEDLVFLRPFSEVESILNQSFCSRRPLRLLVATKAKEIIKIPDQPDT

[4] = molecular target: T1, MPP5, Q8N3R9
[5] = molecular target: MAGI1_3, Q96QZ7
MAGI1_3, Q96QZ7, sequence (Q96QZ7 638-725): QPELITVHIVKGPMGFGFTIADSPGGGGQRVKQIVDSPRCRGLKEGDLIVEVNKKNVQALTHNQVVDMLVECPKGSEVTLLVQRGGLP

[6] = molecular target: PDZRN4_2, Q6ZMN7
PDZRN4_2, Q6ZMN7, sequence (Q6ZMN7 389-498): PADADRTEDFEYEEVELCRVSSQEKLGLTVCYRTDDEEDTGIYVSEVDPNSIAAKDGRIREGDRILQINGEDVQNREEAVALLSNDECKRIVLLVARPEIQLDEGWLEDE

[7] = molecular target: T2, MPDZ_11, O75970
[8] = molecular target: T3, SHANK2, Q9UPX8
[9] = molecular target: DLG5_2, Q8TDM6
DLG5_2, Q8TDM6, sequence (Q8TDM6 714-800): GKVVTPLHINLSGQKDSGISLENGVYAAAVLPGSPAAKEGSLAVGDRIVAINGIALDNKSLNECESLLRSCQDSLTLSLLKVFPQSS

[10] = molecular target: T4, SHANK3, Q9BYB0
[11] = molecular target: MAST3, O60307
MAST3, O60307, sequence (O60307 945-1048): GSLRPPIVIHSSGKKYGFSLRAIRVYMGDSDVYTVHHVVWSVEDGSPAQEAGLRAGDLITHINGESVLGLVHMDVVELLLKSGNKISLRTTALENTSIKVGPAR

[12] = molecular target: SDCBP_1, O00560
SDCBP_1, O00560, sequence (O00560 111-198): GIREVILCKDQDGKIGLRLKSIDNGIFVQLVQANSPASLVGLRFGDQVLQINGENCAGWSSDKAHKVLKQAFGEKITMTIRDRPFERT

[13] = molecular target: CNKSR3, Q6P9H4
CNKSR3, Q6P9H4, sequence (Q6P9H4 203-303): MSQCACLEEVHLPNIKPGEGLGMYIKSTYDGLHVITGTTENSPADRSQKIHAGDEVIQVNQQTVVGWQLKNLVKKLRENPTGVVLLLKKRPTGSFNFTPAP

[14] = molecular target: T5, PDZD2_6, O15018
[15] = molecular target: T6, PTPN13_5, Q12923
[16] = molecular target: MAGI3_6, Q5TCQ9
MAGI3_6, Q5TCQ9, sequence (Q5TCQ9 1014-1103): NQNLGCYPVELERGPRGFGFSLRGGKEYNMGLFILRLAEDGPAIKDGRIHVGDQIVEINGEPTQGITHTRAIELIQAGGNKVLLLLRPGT

[17] = molecular target: PARD3B_3, Q8TEW8
PARD3B_3, Q8TEW8, sequence (Q8TEW8 490-594): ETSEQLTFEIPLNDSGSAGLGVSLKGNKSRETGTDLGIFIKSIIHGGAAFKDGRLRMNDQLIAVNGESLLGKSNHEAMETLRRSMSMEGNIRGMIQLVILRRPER

[18] = molecular target: T7, PDZD8, Q8NEN9
[19] = molecular target: T8, PDZD7_2, Q9H5P4
[20] = molecular target: T9, MPDZ_3, O75970
[21] = molecular target: PARD3_1, Q8TEW0
PARD3_1, Q8TEW0, sequence (Q8TEW0 264-372): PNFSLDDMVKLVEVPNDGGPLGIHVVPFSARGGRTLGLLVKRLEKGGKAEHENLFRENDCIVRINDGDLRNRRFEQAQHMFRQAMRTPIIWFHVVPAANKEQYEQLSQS

[22] = molecular target: T10, SYNPO2L, Q9H987
[23] = molecular target: GIPC3, Q8TF64
GIPC3, Q8TF64, sequence (Q8TF64 107-202): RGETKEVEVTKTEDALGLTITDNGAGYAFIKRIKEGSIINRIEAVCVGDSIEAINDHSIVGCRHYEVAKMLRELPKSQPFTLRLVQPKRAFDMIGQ

[24] = molecular target: SCRIB_4, Q14160
SCRIB_4, Q14160, sequence (Q14160 1095-1204): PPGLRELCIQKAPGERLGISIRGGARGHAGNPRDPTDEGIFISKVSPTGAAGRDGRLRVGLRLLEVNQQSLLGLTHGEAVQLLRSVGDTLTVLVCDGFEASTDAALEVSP

[25] = molecular target: T11, MPDZ_7, O75970
[26] = molecular target: RGS3, P49796-9
RGS3, P49796-9, sequence (P49796 other isoform, or with tags, fused parts or gaps): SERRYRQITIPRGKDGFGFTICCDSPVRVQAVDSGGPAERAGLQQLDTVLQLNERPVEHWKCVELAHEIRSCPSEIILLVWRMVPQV

| Binder | pKd [1] | pKd [3] | pKd [4] | pKd [5] | pKd [6] | pKd [7] | pKd [8] | pKd [9] | pKd [10] | pKd [11] | pKd [12] | pKd [13] | pKd [14] | pKd [15] | pKd [16] | pKd [17] | pKd [18] | pKd [19] | pKd [20] | pKd [21] | further results |
| --- | --- | --- | --- | --- | --- | --- | --- | --- | --- | --- | --- | --- | --- | --- | --- | --- | --- | --- | --- | --- | --- |
| SVWLRKETRV [CYSLTR2, Q9NS75] | below the threshold | below the threshold | below the threshold | 5.09 | below the threshold | below the threshold | below the threshold | 4.71 | below the threshold | below the threshold | below the threshold | below the threshold | below the threshold | below the threshold | below the threshold | below the threshold | below the threshold | below the threshold | below the threshold | below the threshold | pKd [2]: below the threshold; pKd [22]: below the threshold; pKd [23]: below the threshold; pKd [24]: 4.91; pKd [25]: 4.33; pKd [26]: below the threshold |
| SRPQRTQTQV [HPV67-E6, A4U7F2] | below the threshold | below the threshold | below the threshold | 4.12 | below the threshold | below the threshold | below the threshold | 4.16 | below the threshold | below the threshold | below the threshold | below the threshold | below the threshold | below the threshold | below the threshold | below the threshold | below the threshold | below the threshold | below the threshold | below the threshold | pKd [22]: below the threshold; pKd [23]: below the threshold; pKd [24]: below the threshold; pKd [25]: below the threshold; pKd [26]: below the threshold |
| RSLEEEESQL [GRASP, Q7Z6J2] | below the threshold | 4.08 | below the threshold | below the threshold | below the threshold | below the threshold | 4.33 | below the threshold | 5.24 | below the threshold | below the threshold | 4.6 | below the threshold | below the threshold | 4.14 | below the threshold | below the threshold | below the threshold | below the threshold | below the threshold | pKd [2]: below the threshold; pKd [22]: below the threshold; pKd [23]: below the threshold; pKd [24]: below the threshold; pKd [25]: below the threshold; pKd [26]: below the threshold |
| SSRTRRETQL [HPV16-E6, P03126] | below the threshold | below the threshold | below the threshold | 4.16 | below the threshold | below the threshold | below the threshold | 4.12 | below the threshold | below the threshold | below the threshold | below the threshold | below the threshold | below the threshold | below the threshold | below the threshold | below the threshold | below the threshold | below the threshold | below the threshold | pKd [2]: below the threshold; pKd [22]: below the threshold; pKd [23]: below the threshold; pKd [24]: below the threshold; pKd [25]: 4.22; pKd [26]: below the threshold |
| PKTPPTDTSV [KIR3DL3, Q8N743] | below the threshold | below the threshold | below the threshold | below the threshold | below the threshold | below the threshold | below the threshold | below the threshold | below the threshold | below the threshold | below the threshold | below the threshold | below the threshold | below the threshold | below the threshold | below the threshold | 4.36 | below the threshold | below the threshold | below the threshold | pKd [2]: below the threshold; pKd [22]: below the threshold; pKd [23]: below the threshold; pKd [24]: below the threshold; pKd [25]: below the threshold; pKd [26]: below the threshold |
